# Literature values in patent US20030232389A1, “Urokinase peptide structure mimetics” (priority 2000, published 2003).
# Positions of bridges follow the written chain, without caps; N, C: chain ends. Non-standard residues stand in square brackets, D forms with d. No end group written: not given here.
# Target: uPAR (uPA receptor) (Homo sapiens, UniProt Q03405)
# Details: cyclic disulfide peptide mimicking loop B of the uPA growth factor domain; value from German patent application 199 33 701.2
# Chain of uPAR (uPA receptor) (Q03405 23-305): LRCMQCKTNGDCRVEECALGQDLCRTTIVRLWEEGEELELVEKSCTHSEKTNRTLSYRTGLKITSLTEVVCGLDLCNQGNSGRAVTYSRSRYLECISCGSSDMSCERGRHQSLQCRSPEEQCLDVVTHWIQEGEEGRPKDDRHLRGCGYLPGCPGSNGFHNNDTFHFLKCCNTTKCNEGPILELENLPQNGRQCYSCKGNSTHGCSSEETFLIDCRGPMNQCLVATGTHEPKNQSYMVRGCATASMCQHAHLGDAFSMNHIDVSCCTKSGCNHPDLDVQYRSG
substance,measurement,value
"cyclo[1,9] D-Cys-Asn-Lys-Tyr-Phe-Ser-Asn-Ile-Cys-Trp ([dC]NKYFSNICW; disulfide 1-9) [cyclo[21,29][D-Cys21Cys29]-uPA21-30]",IC50,78 nM
